Test [1] has as its target T1, Human receptor grade IGFBP-3 (insulin-like growth factor binding protein 3) (human, UniProt P17936 28-291).
T1 construct: Bought recombinant protein, overlaid in solution on the VN-peptide array
Briefly: VN-peptide array, ligand overlay, immunoblot/ECL, TotalLab spot intensity. Here is the method: (§1) Methanol or ethanol was used to enhance the rehydration of peptide spots that might be hydrophobic. The peptides spotted onto the membranes were activated by incubating in 3 mL of 70% ethanol for five mins. The membranes were subsequently washed three times, 10 minutes each, in 10 mL TBS (Tris Buffered Saline; 8 g NaCl, 0.2 g KCl and 6.1 g Tris Base into 1000 mL of milliQ water, pH 7) with gentle rocking. Membrane blocking was performed by incubating in 10 mL casein-based membrane blocking buffer (MBS; Sigma-Aldrich) overnight at 4° C. The following day, the membranes were washed twice, 10 minutes each, in 10 mL TBS-T (TBS+0.05% Tween-20; pH 7).
(§2) Ligands used to test binding to VN-peptides were IGFBP-3, IGFBP-5 and IGF-II. For ligand binding, four separate solutions of 1 μg/mL ligand in 10 mL MBS buffer were prepared and each membrane was incubated in one of the four ligand solutions overnight at 4° C., with gentle rocking. […] The following day, the membranes were washed three times, 10 minutes each, in 10 mL TBS-T.
(§3) The binding of the ligands to peptides within the membrane was detected using immunoblotting. The membranes were incubated overnight at 4° C. with 10 mL primary antibody solution (in MBS buffer) targeting the respective ligands. The antibodies used were anti-IGFBP-3 (1:10,000), anti-IGFBP-5 (1:10,000) and anti-IGF-II (1:5000) to detect IGFBP-3, IGFBP-5 and IGF-II respectively. The following day, the membranes were washed three times, 10 minutes each, in 10 mL TBS-T and incubated with 10 mL HRP-conjugated secondary IgG antibody diluted 1:15,000 in MBS buffer for 1 hour at room temperature. Following a further three washes of 10 minutes each, the peptide spots were visualized using ECL. The membranes were exposed onto x-ray films and developed using a film processor (AGFA CP 1000), or were imaged directly using the ChemiDoc™ XRS system (BioRad).

Test [2] deals with T2, Human receptor grade IGFBP-5 (insulin-like growth factor binding protein 5) (human, UniProt P24593 21-272).
T2 construct: Bought recombinant protein, overlaid in solution on the VN-peptide array
T2 sequence (P24593 21-272 limits assumed): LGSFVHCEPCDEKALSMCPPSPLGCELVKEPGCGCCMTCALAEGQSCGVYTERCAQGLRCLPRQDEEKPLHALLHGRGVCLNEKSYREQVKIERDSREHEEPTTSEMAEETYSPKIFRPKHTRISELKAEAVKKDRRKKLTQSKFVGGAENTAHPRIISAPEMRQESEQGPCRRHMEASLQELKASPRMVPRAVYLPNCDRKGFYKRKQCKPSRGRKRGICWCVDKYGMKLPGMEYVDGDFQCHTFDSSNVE
The test is described as above. Here is the method:
as §1, §2, §3

The target in test [3] is T3, Human receptor grade IGF-II (insulin-like growth factor II) (human, UniProt P01344 25-91).
T3 construct: Bought recombinant protein, overlaid in solution on the VN-peptide array
T3 sequence (P01344 25-91 limits assumed): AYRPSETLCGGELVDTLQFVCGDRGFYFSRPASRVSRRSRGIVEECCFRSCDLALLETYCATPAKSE
The description is as above. As to the method:
as §1, §2, §3

Test [4] addresses T3, Human receptor grade IGF-II …. Briefly: VN-peptide array, ligand overlay, immunoblot/ECL.

Where no end group is shown, it is not given here.

T1 sequence (P17936 28-291 limits assumed): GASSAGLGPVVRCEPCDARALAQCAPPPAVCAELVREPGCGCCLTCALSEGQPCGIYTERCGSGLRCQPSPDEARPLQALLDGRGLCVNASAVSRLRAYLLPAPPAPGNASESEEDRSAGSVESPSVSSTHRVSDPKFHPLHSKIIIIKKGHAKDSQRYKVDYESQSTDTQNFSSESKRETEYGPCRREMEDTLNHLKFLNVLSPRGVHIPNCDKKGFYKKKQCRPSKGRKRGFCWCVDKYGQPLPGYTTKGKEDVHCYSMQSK

B1: VN-peptide 5C (array grid G7) (peptide)
peptide: MQRDSWEDIFELLFWG
modifications: not fully specified (N-terminus); also: free end capped by acetylation, immobilised on cellulose membrane (SPOT synthesis)
As for B1, in test [1], the “Intensity (against -ve control)” value was 4.5 fold over negative controls.
Ac-LRTRRVDTVDPPYPRS (also: immobilised on cellulose membrane) [VN-peptide 8C (array grid J6)]: the figures for the “Intensity (against -ve control)” value in test [2], in test [1] and in test [3] were 9 fold over negative controls, 10 fold over negative controls and 13 fold over negative controls, respectively.

B2: VN-peptide 6C (array grid G14) (peptide)
peptide: TRQPQFISRDWHGVPG
modifications: not fully specified (N-terminus); also: free end capped by acetylation, immobilised on cellulose membrane (SPOT synthesis)
Turning to B2, the “Intensity (against -ve control)” value was 5 fold over negative controls in test [2], 1.5 fold over negative controls in test [1] and 1.5 fold over negative controls in test [3].

B3: VN peptide P7 (LFSSEESNLGANNYDDYRMDWL) (peptide)
peptide: LFSSEESNLGANNYDDYRMDWL
notes: Free synthetic peptide (Mimotopes) in the migration and growth assays; The array carried only its overlapping 16-mers 7A-7C; also called Peptide 7; motif-7 mimic
As for B3, the binding result in test [4] is “binds”.

B4: VN-peptide 4B (array grid F13) (peptide)
peptide: QYWEYQFQHQPSQEEC
modifications: not fully specified (N-terminus); also: free end capped by acetylation, immobilised on cellulose membrane (SPOT synthesis)
On to B4, for which the “Intensity (against -ve control)” value in test [1] is 12 fold over negative controls.

B5: VN-peptide 7C (array grid I9) (peptide)
peptide: SNLGANNYDDYRMDWL
modifications: not fully specified (N-terminus); also: free end capped by acetylation, immobilised on cellulose membrane (SPOT synthesis)
Regarding B5, the “Intensity (against -ve control)” value in test [3] was 12 fold over negative controls.

B6: VN-peptide 3A (array grid F5) (peptide)
peptide: VDAALALPAHSYSGRE
modifications: not fully specified (N-terminus); also: free end capped by acetylation, immobilised on cellulose membrane (SPOT synthesis)
With B6, the “Intensity (against -ve control)” value was 3 fold over negative controls in test [2], 1 fold over negative controls in test [1] and 5 fold over negative controls in test [3].

B7: VN-peptide 5A (array grid G5) (peptide)
peptide: FEHFAMMQRDSWEDIF
modifications: not fully specified (N-terminus); also: free end capped by acetylation, immobilised on cellulose membrane (SPOT synthesis)
B7: the “Intensity (against -ve control)” value in test [1] is 1.5 fold over negative controls.

B8: VN-peptide 2B (array grid C13) (peptide)
peptide: GIDSRPETLHPGRPQP
modifications: not fully specified (N-terminus); also: free end capped by acetylation, immobilised on cellulose membrane (SPOT synthesis)
With B8, the “Intensity (against -ve control)” value in test [2] was 7 fold over negative controls; in test [1], 2 fold over negative controls.

B9: VN-peptide 5D (array grid G8) (peptide)
peptide: DSWEDIFELLFWGRTS
modifications: not fully specified (N-terminus); also: free end capped by acetylation, immobilised on cellulose membrane (SPOT synthesis)
B9: the “Intensity (against -ve control)” value in test [1] is 2.5 fold over negative controls.

B10: VN-peptide 6B (array grid G13) (peptide)
peptide: SAGTRQPQFISRDWHG
modifications: not fully specified (N-terminus); also: free end capped by acetylation, immobilised on cellulose membrane (SPOT synthesis)
B10: the results for the “Intensity (against -ve control)” value in test [2], in test [1] and in test [3] were 1.5 fold over negative controls, 1 fold over negative controls and 0 fold over negative controls, respectively.

B11: VN-peptide 1A (array grid A13) (peptide)
peptide: CQCDELCSYYQSCCTD
modifications: not fully specified (N-terminus); cysteine pairing not given here; also: free end capped by acetylation, immobilised on cellulose membrane (SPOT synthesis)
With B11, in test [4], the binding result was “binds”. For the same molecule, the “Intensity (against -ve control)” value in test [2] was 11 fold over negative controls; in test [1] it was 10 fold over negative controls.

B12: VN-peptide 4A (array grid F12) (peptide)
peptide: KGKQYWEYQFQHQPSQ
modifications: not fully specified (N-terminus); also: free end capped by acetylation, immobilised on cellulose membrane (SPOT synthesis)
On to B12, for which the “Intensity (against -ve control)” value in test [1] is 6 fold over negative controls.

B13: VN-peptide 8B (array grid J5) (peptide)
peptide: RVNLRTRRVDTVDPPY
modifications: not fully specified (N-terminus); also: free end capped by acetylation, immobilised on cellulose membrane (SPOT synthesis)
In the case of B13, the “Intensity (against -ve control)” value was 7 fold over negative controls in test [2], 7 fold over negative controls in test [1] and 17 fold over negative controls in test [3].

B14: VN-peptide 2A (array grid C12) (peptide)
peptide: KPEGIDSRPETLHPGR
modifications: not fully specified (N-terminus); also: free end capped by acetylation, immobilised on cellulose membrane (SPOT synthesis)
On to B14, for which the entries for the “Intensity (against -ve control)” value in test [2] and in test [1] were 5 fold over negative controls and 4 fold over negative controls, respectively.

B15: VN-peptide 3B (array grid F6) (peptide)
peptide: ALALPAHSYSGRERVY
modifications: not fully specified (N-terminus); also: free end capped by acetylation, immobilised on cellulose membrane (SPOT synthesis)
Consider B15, for which the “Intensity (against -ve control)” value in test [2] is 3 fold over negative controls; in test [1], 1 fold over negative controls; in test [3], 10 fold over negative controls.

B16: VN-peptide 7A (array grid I7) (peptide)
peptide: LFSSEESNLGANNYDD
modifications: not fully specified (N-terminus); also: free end capped by acetylation, immobilised on cellulose membrane (SPOT synthesis)
In the case of B16, the “Intensity (against -ve control)” value in test [3] was 17 fold over negative controls.
Ac-RRVDTVDPPYPRSIAQ (also: immobilised on cellulose membrane) [VN-peptide 8D (array grid J7)]: the “Intensity (against -ve control)” value was 8 fold over negative controls in test [2], 4 fold over negative controls in test [1] and 11 fold over negative controls in test [3].

B17: VN-peptide 7B (array grid I8) (peptide)
peptide: SEESNLGANNYDDYRM
modifications: not fully specified (N-terminus); also: free end capped by acetylation, immobilised on cellulose membrane (SPOT synthesis)
With B17, the “Intensity (against -ve control)” value in test [3] is 18 fold over negative controls.

B18: VN-peptide 6A (array grid G12) (peptide)
peptide: GRTSAGTRQPQFISRD
modifications: not fully specified (N-terminus); also: free end capped by acetylation, immobilised on cellulose membrane (SPOT synthesis)
For B18, the entries for the “Intensity (against -ve control)” value in test [2], in test [1] and in test [3] were 7 fold over negative controls, 2 fold over negative controls and 12 fold over negative controls, respectively.

B19: VN-peptide 5B (array grid G6) (peptide)
peptide: FAMMQRDSWEDIFELL
modifications: not fully specified (N-terminus); also: free end capped by acetylation, immobilised on cellulose membrane (SPOT synthesis)
For B19, the “Intensity (against -ve control)” value in test [1] was 4.5 fold over negative controls.

B20: VN-peptide 8A (array grid J4) (peptide)
peptide: KYYRVNLRTRRVDTVD
modifications: not fully specified (N-terminus); also: free end capped by acetylation, immobilised on cellulose membrane (SPOT synthesis)
Regarding B20, the “Intensity (against -ve control)” value in test [2] was 3 fold over negative controls; in test [1], 5 fold over negative controls; in test [3], 5 fold over negative controls.

For the origin of these results see patent US20150299263A1 (FACTOR THERAPEUTICS, published 2015).
